PMC10966104

Assays:
[1] = biological target: baseplate hub gp15 of cyanophage A-1(L) (cyanophage A-1(L)); experiment: cryo-EM structure; intact A-1(L) particles purified from infected Anabaena sp. PCC 7120, in SM buffer (50 mM Tris-HCl pH 7.5, 10 mM MgSO4, 100 mM NaCl); local reconstructions of portal, gp5-neck fiber, gp7-terminator, sheath-tube, baseplate and tail fibers
[2] = biological target: baseplate wedge protein gp32 of cyanophage A-1(L) (cyanophage A-1(L)); experiment: as above
[3] = biological target: central spike gp25 of cyanophage A-1(L) (cyanophage A-1(L)); experiment: as above
[4] = biological target: long tail fiber gp34 of cyanophage A-1(L) (cyanophage A-1(L)); experiment: as above
[5] = biological target: neck fiber protein gp82 of cyanophage A-1(L), in the virion (cyanophage A-1(L)); experiment: as above
[6] = biological target: neck protein gp5 of cyanophage A-1(L) (cyanophage A-1(L)); experiment: as above
[7] = biological target: neck protein gp7 of cyanophage A-1(L) (cyanophage A-1(L)); experiment: as above
[8] = biological target: portal protein gp2 of cyanophage A-1(L) (cyanophage A-1(L)); experiment: as above
[9] = biological target: recombinant gp80-His6 of the neck fiber (cyanophage A-1(L)); experiment: SEC-MALS; recombinant neck fiber gp82-gp81-gp80-His6, 1 mg/mL, 100 uL, Superdex 200 Increase 10/300 GL in binding buffer
[10] = biological target: recombinant gp82 of the neck fiber gp82-gp81-gp80-His6 (cyanophage A-1(L)); experiment: as above
[11] = biological target: sheath initiator gp30 of cyanophage A-1(L) (cyanophage A-1(L)); experiment: cryo-EM structure; intact A-1(L) particles purified from infected Anabaena sp. PCC 7120, in SM buffer (50 mM Tris-HCl pH 7.5, 10 mM MgSO4, 100 mM NaCl); local reconstructions of portal, gp5-neck fiber, gp7-terminator, sheath-tube, baseplate and tail fibers
[12] = biological target: short tail fiber gp33 of cyanophage A-1(L) (cyanophage A-1(L)); experiment: as above
[13] = biological target: tail sheath protein gp9 of cyanophage A-1(L) (cyanophage A-1(L)); experiment: as above
[14] = biological target: tail terminator gp8 of cyanophage A-1(L) (cyanophage A-1(L)); experiment: as above
[15] = biological target: tail tube protein gp10 of cyanophage A-1(L) (cyanophage A-1(L)); experiment: as above
[16] = biological target: tape measure protein gp13 of cyanophage A-1(L) (cyanophage A-1(L)); experiment: as above
[17] = biological target: tube initiator gp18 of cyanophage A-1(L) (cyanophage A-1(L)); experiment: as above

Substance: baseplate hub gp15 of cyanophage A-1(L) (natural protein)
- stoichiometry N [1]: 3 subunits

Substance: baseplate wedge protein gp31 of cyanophage A-1(L) (natural protein)
- stoichiometry N (gp31 per gp32) [2]: 2

Substance: central spike gp25 of cyanophage A-1(L) (natural protein)
- stoichiometry N [3]: 3 subunits

Substance: long tail fiber gp34 of cyanophage A-1(L) (natural protein)
- stoichiometry N [4]: 3 subunits

Substance: neck fiber protein gp82 of cyanophage A-1(L), in the virion (natural protein)
- stoichiometry N [5]: 3 subunits

Substance: neck protein gp5 of cyanophage A-1(L) (natural protein)
- stoichiometry N [6]: 15 subunits

Substance: neck protein gp7 of cyanophage A-1(L) (natural protein)
- stoichiometry N [7]: 6 subunits

Substance: portal protein gp2 of cyanophage A-1(L) (natural protein)
- stoichiometry N [8]: 12 subunits

Substance: recombinant gp81 of the neck fiber (natural protein)
- stoichiometry N (gp81 trimers per gp80 trimer) [9]: 14
- stoichiometry N (gp81 trimers per gp82 trimer) [10]: 14

Substance: sheath initiator gp30 of cyanophage A-1(L) (natural protein)
- stoichiometry N [11]: 6 subunits

Substance: short tail fiber gp33 of cyanophage A-1(L) (natural protein)
- stoichiometry N [12]: 3 subunits

Substance: tail sheath protein gp9 of cyanophage A-1(L) (natural protein)
- stoichiometry N (subunits in a ring) [13]: 6

Substance: tail terminator gp8 of cyanophage A-1(L) (natural protein)
- stoichiometry N [14]: 6 subunits

Substance: tail tube protein gp10 of cyanophage A-1(L) (natural protein)
- stoichiometry N (subunits in a ring) [15]: 6

Substance: tape measure protein gp13 of cyanophage A-1(L) (natural protein)
- stoichiometry N [16]: 6

Substance: tube initiator gp18 of cyanophage A-1(L) (natural protein)
- stoichiometry N [17]: 6 subunits
